Measured values: the supplement of paper PMC9233669
This sample holds only a part of the variants without activity.

Assays:
biotinyl-Phe-oxazolone = test: self-aminoacylation, catalytic enhancement (BFO) (fold over background); higher = more active; k-Seq, kA / k0A0; sequences stand for … in GGGAAUGGAUCCACAUCUACGAAUUC…UUCACUGCAGACUUGACGAAGCUG
Outline: (§1)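 Each biotinyl-aminoacyl-oxazolone, at 2–1250 μM, was incubated with mutagenized RNA pools (0.43 μM) carrying a 21-nt variable region. The 50 μL reactions contained HEPES/NaCl/KCl/MgCl2/CaCl2 buffer with 5% acetonitrile at pH 6.9–7.0 and ran for 90 minutes at room temperature. After streptavidin capture, RNA was measured by qPCR in triplicate and by Illumina sequencing, and catalytic enhancement was calculated as median kA over the uncatalyzed rate from a pseudo-first-order fit of per-sequence fraction reacted.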

biotinyl-Ile-oxazolone = test: self-aminoacylation, catalytic enhancement (BIO) (fold over background); higher = more active; k-Seq, kA / k0A0; sequences stand for … in GGGAAUGGAUCCACAUCUACGAAUUC…UUCACUGCAGACUUGACGAAGCUG
Outline: as §1

biotinyl-Met-oxazolone = test: self-aminoacylation, catalytic enhancement (BMO) (fold over background); higher = more active; k-Seq, kA / k0A0; sequences stand for … in GGGAAUGGAUCCACAUCUACGAAUUC…UUCACUGCAGACUUGACGAAGCUG
Outline: as §1

biotinyl-Val-oxazolone = test: self-aminoacylation, catalytic enhancement (BVO) (fold over background); higher = more active; k-Seq, kA / k0A0; sequences stand for … in GGGAAUGGAUCCACAUCUACGAAUUC…UUCACUGCAGACUUGACGAAGCUG
Outline: as §1

biotinyl-Leu-oxazolone = test: self-aminoacylation, catalytic enhancement (BLO) (fold over background); higher = more active; k-Seq, kA / k0A0; sequences stand for … in GGGAAUGGAUCCACAUCUACGAAUUC…UUCACUGCAGACUUGACGAAGCUG
Outline: as §1

biotinyl-Trp-oxazolone = test: self-aminoacylation, catalytic enhancement (BWO) (fold over background); higher = more active; k-Seq, kA / k0A0; sequences stand for … in GGGAAUGGAUCCACAUCUACGAAUUC…UUCACUGCAGACUUGACGAAGCUG
Outline: as §1

Sequence	self-aminoacylation (biotinyl-Phe-oxazolone)	self-aminoacylation (biotinyl-Ile-oxazolone)	self-aminoacylation (biotinyl-Met-oxazolone)	self-aminoacylation (biotinyl-Val-oxazolone)	self-aminoacylation (biotinyl-Leu-oxazolone)	self-aminoacylation (biotinyl-Trp-oxazolone)
AUUGCCCUGGUCUUCGAGUGA [Fam2.1 aminoacylation ribozyme variant]	47.1	3.44	6.57	3.96	6.8	8.03
AUUGCCCUGGUGAUCGAGUGA [Fam2.1 aminoacylation ribozyme variant]	36.1	2.77	5.63	2.82	5.06	6
AUUGCGCUGGUCAUCGAGUGA [Fam2.1 aminoacylation ribozyme variant]	25.1	2.47	4.28	2.62	4.57	5.11
AUUGGCCUGGUCAUCGAGUGA [Fam2.1 aminoacylation ribozyme variant]	30.7	4.1	6.17	4.31	7.35	9.15
AUUUACAUAGGUCAUCGGGUG [Fam2.2 aminoacylation ribozyme variant]	39	3.38	5.69	3.38	6.44	5.5
AUUUACCUAGGUCAUCGGGCG [Fam2.2 aminoacylation ribozyme variant]	3.65	2.57	3.93	3	4.32	3.25
AUUUACCUAGGUCAUCGGGGG [Fam2.2 aminoacylation ribozyme variant]	3.14	2.81	3.84	2.46	4.77	2.43
AUUUACCUAGGUCAUCGGGUC [Fam2.2 aminoacylation ribozyme variant]	0.638	1.12	1.26	1.27	1.33	1.02
AUUUACCUAGGUCAUCGGGUU [Fam2.2 aminoacylation ribozyme variant]	36.2	5.12	8.02	4.59	11.7	6.98
AUUUACCUAGGUCAUGGGGUG [Fam2.2 aminoacylation ribozyme variant]	25.7	3.3	4.54	2.85	6.06	4.29
AUUUACCUAGGUCGUCGGGUG [Fam2.2 aminoacylation ribozyme variant]	9.82	1.46	1.61	1.82	1.88	0.963
AUUUACCUAGGUCUUCGGGUG [Fam2.2 aminoacylation ribozyme variant]	24.9	2.84	4.28	3.38	4.16	3.92
AUUUCCCUGGGCAUCGAGUGA [Fam2.1 aminoacylation ribozyme variant]	32.6	3	5.56	3.21	6.7	6.79
AUUUCCCUGGUCAGCGAGUGA [Fam2.1 aminoacylation ribozyme variant]	37.4	4.15	6.28	3.85	6.54	6.86
AUUUGCCUAGGUCAUCGGGUG [Fam2.2 aminoacylation ribozyme variant]	195	16	28	14.1	38.3	24.6
CAACACUUCAAACAAUCGGUC [Fam1B.1 aminoacylation ribozyme variant]	78.2	1.36	1.84	1.38	2.11	38.2
CAACACUUCAAGCAAUCGGCC [Fam1B.1 aminoacylation ribozyme variant]	4.12	2.57	2.64	2.58	2.45	3.87
CAACACUUCAAGCAAUCGGUC [Fam1B.1 aminoacylation ribozyme variant]	43.1	1.13	1.11	1.27	1.55	20.1
CAACACUUCAAGCAUUCGGUC [Fam1B.1 aminoacylation ribozyme variant]	1.04	1.71	1.61	1.76	1.58	1.83
CAACACUUCAAGGAAUCGGUC [Fam1B.1 aminoacylation ribozyme variant]	3.28	1.47	1.07	1.03	0.95	3.1
CAACACUUCAAGUAAUCGGUC [Fam1B.1 aminoacylation ribozyme variant]	10.4	0.979	1.05	0.899	1.19	7.22

Sequence	self-aminoacylation (biotinyl-Phe-oxazolone)	self-aminoacylation (biotinyl-Ile-oxazolone)	self-aminoacylation (biotinyl-Met-oxazolone)	self-aminoacylation (biotinyl-Val-oxazolone)	self-aminoacylation (biotinyl-Leu-oxazolone)	self-aminoacylation (biotinyl-Trp-oxazolone)
CAACACUUCAAUCAAUCGGUC [Fam1B.1 aminoacylation ribozyme variant]	34.9	1.06	1.19	1.05	1.66	19.1
CAACACUUCCAGCAAUCGGUC [Fam1B.1 aminoacylation ribozyme variant]	0.986	1.41	1.1	1.26	1.1	1.01
CAACUCCAAACAAUCGGUCUG [Fam1A.1 aminoacylation ribozyme variant]	6.95	1.31	1.36	1.14	1.1	3.05
CAACUCUUCAAGCAAUCGGUC [Fam1B.1 aminoacylation ribozyme variant]	9.86	1.05	1.16	1.04	1.33	6.16
CAACUUCAAACAAUCGGUGUG [Fam1A.1 aminoacylation ribozyme variant]	27.3	1.92	2.15	1.7	2.53	16.5
CAACUUGAAACAAUCGGUCUG [Fam1A.1 aminoacylation ribozyme variant]	1.36	1.15	1.24	1.11	1.36	1.02
CAAUUUCAAACAAUCGGUCUG [Fam1A.1 aminoacylation ribozyme variant]	9.15	1.01	1.02	0.869	0.903	5.88
CACCACUUCAAGCAAUCGGUC [Fam1B.1 aminoacylation ribozyme variant]	40.5	1.11	1.33	1.28	1.83	21.8
CAGAUUGCUAAUAGUCGCAAG [Fam3.1 aminoacylation ribozyme variant]	1.9	1.37	1.24	1.28	1.23	1.31
CAGUUUGCGAAUAGUCGCAAG [Fam3.1 aminoacylation ribozyme variant]	5.57	1.79	1.93	1.59	2.67	2
CAGUUUGCUAAUAGUCGGAAG [Fam3.1 aminoacylation ribozyme variant]	3.05	1.27	1.26	1.35	1.11	1.43
CAGUUUGCUAAUAGUCUCAAG [Fam3.1 aminoacylation ribozyme variant]	1.71	0.951	0.711	0.829	1.09	0.993
CAGUUUGCUAAUAGUGGCAAG [Fam3.1 aminoacylation ribozyme variant]	0.616	0.854	1.04	0.882	0.854	0.985
CAGUUUGCUAAUCGUCGCAAG [Fam3.1 aminoacylation ribozyme variant]	0.994	0.971	0.993	1.07	1.32	1.05
CAUUUUGCUAAUAGUCGCAAG [Fam3.1 aminoacylation ribozyme variant]	0.981	1.3	1.01	1.04	1.07	0.635
CCAAACUUCAAGCAGUCGGUC [Fam1B.1 aminoacylation ribozyme variant]	0.806	1.29	1.01	1.18	1.1	0.793
CCAAACUUCAUGCAAUCGGUC [Fam1B.1 aminoacylation ribozyme variant]	0.558	0.959	0.703	1	0.864	0.611
CCACAAUUCAAGCAAUCAGUC [Fam1B.1 aminoacylation ribozyme variant]	1.54	0.933	0.673	0.876	0.763	0.762
CCACAAUUCAAGCAAUCGGUA [Fam1B.1 aminoacylation ribozyme variant]	1.33	1.26	1.19	1.17	1.43	1.13
CCACAAUUCAAGCAAUCGGUG [Fam1B.1 aminoacylation ribozyme variant]	60.3	6.36	8.06	5.99	12.3	8.78
CCACAAUUCAAGCAAUCGGUU [Fam1B.1 aminoacylation ribozyme variant]	1.16	1.68	1.76	1.65	1.39	1.55
